In PMC5356271 (2017):

B1: HIV-1 Vif, wild type [HIV-1] / Flag-CBFβ (core-binding factor β), wild type [not stated] (parent complex)
chain 1: not shown
chain 2: MPRVVPDQRSKFENEEFFRKLSRECEIKYTGFRDRPHEERQARFQNACRDGRSEIAFVATGTNLSLQFFPASWQGEQRQTPSREYVDLEREAGKVYLKAPMILNGVCVIWKGWIDLQRLDGMGCLEFDEERAQQEDALAQQAFEEARRRTREFEDRDRSHREEMEVRVSQ

Variants of: B1
Experiment: co-immunoprecipitation (Flag IP) with immunoblot quantification; 293T cells treated with CBFβ-specific siRNA; MG132 (5 μM) for 16-h; read off a plot

Point of comparison: chain 2 F68A, percent of parent ~76 % WT CBFβ. Against it:
- chain 2 I55A — lower, ~68 % WT CBFβ
